Laboratory results taken from US20240059759A1 (BIGHAT BIOSCIENCES, published 2024).
Substitutions are numbered along the chain they refer to. Names and notes keep the numbering of the source.

B1: VHH-72(S57G) (VHH)
VHH: QVQLQESGGGLVQAGGSLRLSCAASGRTFSEYAMGWFRQAPGKEREFVATISWSGGGTYYTDSVKGRFTISRDNAKNTVYLQMNSLKPDDTAVYYCAAAGLGTVVSEWDYDYDYWGQGTQVTVSS
B2: VHH-72 (S57A) (VHH)
VHH: B1 VHH with G57A
B3: VHH-72(D61A) (VHH)
VHH: B1 VHH with G57S, D62A
B4: VHH-72(S57T) (VHH)
VHH: B1 VHH with G57T
B5: VHH-72(S57S) (VHH)
VHH: B1 VHH with G57S
B6: VHH-72 (S57A, Y60H) (VHH)
VHH: B1 VHH with G57A, Y60H
B7: VHH-72 (S57Y) (VHH)
VHH: B1 VHH with G57Y
B8: VHH-72 variant expressing both S57A and D61A (VHH)
VHH: B1 VHH with G57A, D62A
B9: VHH-72 (S57A, Y60T) (VHH)
VHH: B1 VHH with G57A, Y60T

Key:
[1] = biological target: T1, SARS-CoV-2 RBD (SinoBiological, Cat. No. 40592-V02H) (SARS-CoV-2, UniProt P0DTC2 319-541); test: ELISA on SARS-CoV-2 RBD
T1 construct: domain: RBD

[2] = biological target: T1, SARS-CoV-2 RBD (SinoBiological, Cat. …); test: ELISA on RBD, compared with wildtype VHH-72
[3] = biological target: T1, SARS-CoV-2 RBD (SinoBiological, Cat. …); test: ELISA on RBD
[4] = biological target: T1, SARS-CoV-2 RBD (SinoBiological, Cat. …); test: ELISA, relative EC50
[5] = biological target: T1, SARS-CoV-2 RBD (SinoBiological, Cat. …)

Binder	Rel. EC50 - ELISA [1]	EC50 [3]	also measured
B1	0.09 relative to WT		
B2	0.05 relative to WT	0.09 µg/mL	fold increase in RBD affinity [2]: 22 fold
B3		0.51 µg/mL	fold increased RBD binding [2]: 4 fold
B4			binding result [4]: no binding
B5	1 relative to WT		
B6		0.029 µg/mL	fold further-increased apparent RBD affinity [5]: ~3.5 fold
B7	0.28 relative to WT		fold increased apparent affinity [2]: ~4 fold
B8		0.012 µg/mL	fold improved binding compared to the wildtype VHH-72 [2]: > 160 fold
B9		0.024 µg/mL	fold further-increased apparent RBD affinity [5]: ~3.5 fold
